Reference: patent publication US20210260155A1, “H-NOX Proteins for Treating Cardiovascular and Pulmonary Conditions” (OMNIOX.INC., priority 2018, published 2021)

Test: NO reactivity
Type: biochemical
Experimental: NO reactivity is measured using purified proteins (H-NOX, polymeric H-NOX, Homo sapiens hemoglobin (Hs Hb) etc.) prepared at 2 μM in buffer A and NO prepared at 200 μM in Buffer A (Buffer A: 50 mM Hepes, pH 7.5, 50 mM NaCl). Data are acquired on a HI-TECH Scientific SF-61 stopped-flow spectrophotometer equipped with a Neslab RTE-100 constant-temperature bath set to 20° C. (TGK Scientific LTD., Bradford On Avon, United Kingdom). The protein is rapidly mixed with NO in a 1:1 ratio with an integration time of 0.00125 sec. The wavelengths of maximum change are fit to a single exponential using the software that is part of the spectrometer, essentially measuring the rate-limiting step of oxidation by NO. The end products of the reaction are ferric-NO for the HNOX proteins and ferric-aquo for Hs Hb.

B1: wild-type T. tengcongensis H-NOX: wild-type Thermoanaerobacter tengcongensis H-NOX protein, SEQ ID NO:2 (protein, listed as Thermoanaerobacter tengcongensis)
chain: MKGTIVGTWIKTLRDLYGNDVVDESLKSVGWEPDRVITPLEDIDDDEVRRIFAKVSEKTGKNVNEIWREVGRQNIKTFSEWFPSYFAGRRLVNFLMMMDEVHLQLTKMIKGATPPRLIAKPVAKDAIEMEYVSKRKMYDYFLGLIEGSSKFFKEEISVEEVERGEKDGFSRLKVRIKFKNPVFE
NO reactivity: low
